Source: paper PMC10521975, “Species-specific cleavage of cGAS by picornavirus protease 3C disrupts mitochondria DNA-mediated immune sensing”

Biological target: T1, pcGAS full-length (pcGASFL) (Sus scrofa (porcine), UniProt I3LM39 1-495)
T1 sequence: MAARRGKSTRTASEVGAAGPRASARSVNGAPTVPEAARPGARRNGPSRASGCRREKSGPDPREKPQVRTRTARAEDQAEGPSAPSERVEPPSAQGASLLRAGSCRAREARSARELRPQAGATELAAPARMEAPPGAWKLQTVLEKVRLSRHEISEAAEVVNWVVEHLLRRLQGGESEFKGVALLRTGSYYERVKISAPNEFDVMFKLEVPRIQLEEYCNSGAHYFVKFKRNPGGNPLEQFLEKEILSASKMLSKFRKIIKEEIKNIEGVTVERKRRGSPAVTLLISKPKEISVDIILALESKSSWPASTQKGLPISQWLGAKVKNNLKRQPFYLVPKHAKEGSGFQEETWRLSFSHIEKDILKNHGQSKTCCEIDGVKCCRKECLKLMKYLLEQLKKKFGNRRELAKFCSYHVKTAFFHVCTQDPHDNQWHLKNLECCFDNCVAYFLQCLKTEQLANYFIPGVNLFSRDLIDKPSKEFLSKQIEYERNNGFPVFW
Test: EMSA; pcGAS dose series; EMSA: 50 uM ISD45, pcGAS at DNA:protein 1:1 to 1:32, RT 1 h, 1% agarose in 40 mM Tris-HCl pH 9.2; pull-down: pcGAS + 3C in 50 mM HEPES pH 7.5, 3 mM EDTA, 150 mM NaCl, 0.005% Tween-20, 10 mM DTT at 37 C 2 h, then 4 h with HSV60 streptavidin beads
Conditions: protein: recombinant; tags: N-term His6-SUMO-FLAG, C-term HA (SUMO kept on full-length protein); blunt

B1: ISD45 (dsDNA)
DNA 1: TACAGATCTACTAGTGATCTATGACTGATCTGTACATGATCTACA
DNA 2: TGTAGATCATGTACAGATCAGTCATAGATCACTAGTAGATCTGTA
B1: binds.
